Patent publication US20240279350A1 (Sanofi, published 2024)
Numbering of substitutions follows the chain as printed. Numbers in names are those of the source.

B1: mAb3 (Y32K) (antibody, human IgG2, kappa, V domains shown)
VH: QVQLVQSGAEVKKPGASVKVSCKASGYTFTGKYMHWVRQAPGQGLEWMGWINPDSGGTNYAQKFQGRVTMTRDTSISTAYMELNRLRSDDTAVYYCARDQPLGYCTNGVCSYFDYWGQGTLVTVSS
VL: DIQMTQSPSSVSASVGDRVTITCRASQGIYSWLAWYQQKPGKAPNLLIYTASTLQSGVPSRFSGSGSGTDFTLTISSLQPEDFATYYCQQANIFPLTFGGGTKVEIKR
notes: Mutant of AbC1 with the same constant regions (IgG2)
B2: AbC1 (antibody, human IgG2, kappa, V domains shown)
VH: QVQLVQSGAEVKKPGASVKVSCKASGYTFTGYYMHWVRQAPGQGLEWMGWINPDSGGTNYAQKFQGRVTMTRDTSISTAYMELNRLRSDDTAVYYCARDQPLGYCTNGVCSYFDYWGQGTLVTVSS
VL: B1 VL
notes: Human IgG2; also called parental antibody; parental AbC1 antibody
B3: mAb1 (Y32K/S77A) (antibody, human IgG2, kappa)
heavy: QVQLVQSGAEVKKPGASVKVSCKASGYTFTGKYMHWVRQAPGQGLEWMGWINPDSGGTNYAQKFQGRVTMTRDTSIATAYMELNRLRSDDTAVYYCARDQPLGYCTNGVCSYFDYWGQGTLVTVSSASTKGPSVFPLAPCSRSTSESTAALGCLVKDYFPEPVTVSWNSGALTSGVHTFPAVLQSSGLYSLSSVVTVPSSNFGTQTYTCNVDHKPSNTKVDKTVERKCCVECPPCPAPPVAGPSVFLFPPKPKDTLMISRTPEVTCVVVDVSHEDPEVQFNWYVDGVEVHNAKTKPREEQFNSTFRVVSVLTVVHQDWLNGKEYKCKVSNKGLPAPIEKTISKTKGQPREPQVYTLPPSREEMTKNQVSLTCLVKGFYPSDIAVEWESNGQPENNYKTTPPMLDSDGSFFLYSKLTVDKSRWQQGNVFSCSVMHEALHNHYTQKSLSLSPGK
light: DIQMTQSPSSVSASVGDRVTITCRASQGIYSWLAWYQQKPGKAPNLLIYTASTLQSGVPSRFSGSGSGTDFTLTISSLQPEDFATYYCQQANIFPLTFGGGTKVEIKRTVAAPSVFIFPPSDEQLKSGTASVVCLLNNFYPREAKVQWKVDNALQSGNSQESVTEQDSKDSTYSLSSTLTLSKADYEKHKVYACEVTHQGLSSPVTKSFNRGEC
notes: Mutant of AbC1 with the same constant regions (IgG2); also called mAb1 double mutant; mAb1 (without masking moiety)
B4: mAb2 (Y32K/S77P) (antibody, human IgG2, kappa, V domains shown)
VH: B1 VH with S77P
VL: B1 VL
notes: as for B1
B5: mAb4 (Y32R) (antibody, human IgG2, kappa, V domains shown)
VH: B1 VH with K32R
VL: B1 VL
notes: as for B1

Experiments:
human CD40 on cells [1] = molecular target: T1, human CD40 on cells (human, UniProt P25942 21-277); experiment: flow cytometry on human primary naive B-cells, 1 h at 4 °C, AF488-conjugated secondary antibody (MFI)
T1 construct: also called hCD40
Procedure: (§1) Naive B-cell were plated at a density of […] cells per well in 96-well plates and incubated with CD40 agonists, hexameric ligand and anti-CD40 antibodies, for 1 hour at 4° C.

recombinant human CD40 = molecular target: T2, recombinant human CD40 (human, UniProt P25942 21-193); experiment: SPR (Biacore 8K+), antibody captured on protein A/G, recombinant hCD40 as analyte, 1:1 model
T2 construct: Soluble analyte in SPR; also called Recombinant hCD40; hCD40
Procedure: Protein A/G was immobilized to the surface of a CM5 series S chip using amine chemistry. Test compounds were then captured to the surface between 120 RU and 170 RU. Recombinant hCD40 was diluted 2-fold from 300 nM to 2.34 nM in HBS-EP+buffer. […] Glycine (10 mM) pH 1.5 was used to regenerate the chip surface. The binding affinity (KD) was determine using a 1:1-binding model by a global fit of all the concentrations.

[2] = molecular target: T3, cynomolgus CD40 on HEK293 cells (cynomolgus, UniProt G7PG38 21-278); experiment: flow cytometry on cynomolgus CD40-expressing HEK293 cells, 1 h at 4 °C, AF488-conjugated secondary antibody (MFI)
T3 construct: whole, on cells; also called cyno CD40; cynoCD40-expressing HEK293 cells
Procedure: Cyno CD40-expressing HEK293 cells were plated at a density of 50×10³ cells per well in 96-well plates and incubated with serially diluted concentrations of CD40 agonists, hexameric ligand and anti-CD40 antibodies, for 1 hour at 4° C. Cells were then harvested and incubated with AF488-conjugated secondary antibody before flow cytometry analysis using a Fortessa X20.
Data from the flow cytometer was analyzed using FlowJo (V10.8.1), then the binding curves, the Eₘₐₓ, and EC₅₀ values were plotted using GraphPad Prism (V9.1.2).

[3] = molecular target: rhesus CD40 on HEK293H reporter cells (rhesus, UniProt F6SNI1 21-278); experiment: cell-based or functional assay
human CD40 on cells [4] = molecular target: T1, human CD40 on cells; experiment: cell-based or functional assay
human CD40 on cells [5] = molecular target: T1, human CD40 on cells; experiment: cell-based or functional assay; remark: listed apart in the source
human CD40 on cells [6] = molecular target: T1, human CD40 on cells; experiment: flow cytometry on U-2 OS/NFκB cells (further experiment), APC-conjugated anti-human IgG secondary antibody (median fluorescence intensity)
Procedure: (§2) Briefly, cultured U-2 OS/NFκB cells were seeded in 96-well plates at 1.0×10⁵ cells/well and incubated with serially-diluted test antibodies for 60 minutes at 4° C. in 2% FBS/dPBS buffer. The cells were then washed twice with dPBS and further incubated with secondary allophycocyanin (APC)-conjugated AffiniPure F(ab′)₂ fragment donkey anti-human IgG (H+L) antibody (Jackson ImmunoResearch, Ref. 709-136-149) (1:500) for 30 minutes at 4° C. Finally, the cells were washed twice with dPBS and suspended in FACS buffer for flow cytometry analysis. MFI values vs concentrations were analyzed by FlowJo and data were further fitted with four-parameter non-linear regression to get EC₅₀ values by GraphPad Prism software.

human CD40 on cells [7] = molecular target: T1, human CD40 on cells; experiment: cell-based or functional assay; remark: listed apart in the source
human CD40 on cells [8] = molecular target: T1, human CD40 on cells; experiment: flow cytometry on human primary naive B-cells, 1 h at 4 °C, AF488-conjugated secondary antibody (MFI); remark: listed apart in the source
Procedure: as §1

human CD40 on cells [9] = molecular target: T1, human CD40 on cells; experiment: cell-based or functional assay; remark: listed apart in the source
human CD40 on cells [10] = molecular target: T1, human CD40 on cells; experiment: cell-based or functional assay; remark: listed apart in the source
human CD40 on cells [11] = molecular target: T1, human CD40 on cells; experiment: flow cytometry on U-2 OS/NFκB cells; EC50 relative to mAb1
Procedure: as §2

human CD40 on cells [12] = molecular target: T1, human CD40 on cells; experiment: flow cytometry on U-2 OS/NFκB cells
Procedure: as §2

human CD40 on cells [13] = molecular target: T1, human CD40 on cells; experiment: flow cytometry on Raji cells; binding to Raji cells, flow cytometry
Procedure: as §2, with “Raji” for “cultured U-2 OS/NFκB”

human CD40 on cells [14] = molecular target: T1, human CD40 on cells; experiment: flow cytometry on Raji cells; EC50 relative to mAb1
Procedure: as §2, with “Raji” for “cultured U-2 OS/NFκB”

T2 sequence (P25942 21-193 limits assumed): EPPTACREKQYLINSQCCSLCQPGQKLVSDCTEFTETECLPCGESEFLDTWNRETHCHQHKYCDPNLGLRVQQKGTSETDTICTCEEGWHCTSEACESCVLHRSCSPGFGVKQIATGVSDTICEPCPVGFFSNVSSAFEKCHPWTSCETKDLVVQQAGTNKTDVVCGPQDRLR
T1 sequence (P25942 21-277 limits assumed): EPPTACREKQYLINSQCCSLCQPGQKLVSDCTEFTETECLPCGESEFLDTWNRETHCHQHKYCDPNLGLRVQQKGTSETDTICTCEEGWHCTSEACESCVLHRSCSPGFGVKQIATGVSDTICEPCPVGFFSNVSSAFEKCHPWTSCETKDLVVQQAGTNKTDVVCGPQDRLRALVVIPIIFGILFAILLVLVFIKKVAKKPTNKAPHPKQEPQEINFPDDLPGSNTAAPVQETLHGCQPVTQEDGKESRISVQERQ

| Binder | EC50 (read off the curve) (human CD40 on cells [1]) | Kd (recombinant human CD40) | koff (recombinant human CD40) | kon (recombinant human CD40) | EC50 (read off the curve) [2] | EC50, luciferase reporter assay, HEK293H rhesus CD40 reporter cells [3] | Top, luciferase reporter assay, HEK293H rhesus CD40 reporter cells [3] | EC50, NFkB-luciferase reporter assay, human NFkB-Luc2P/U-2 OS cells (human CD40 on cells [4]) | Top, NFkB-luciferase reporter assay, human NFkB-Luc2P/U-2 OS cells (human CD40 on cells [4]) | EC50, CD83 expression, B-cells of hCD40 KI mice (human CD40 on cells [5]) | EC50, CD86 expression, B-cells of hCD40 KI mice (human CD40 on cells [5]) | EC50 (read off the curve) (human CD40 on cells [6]) | EC50, CD83 expression, MoDC maturation assay (human CD40 on cells [7]) | EC50, IL-8 release, MoDC maturation assay (human CD40 on cells [7]) | EC50 (read off the curve) (human CD40 on cells [8]) | further results |
| --- | --- | --- | --- | --- | --- | --- | --- | --- | --- | --- | --- | --- | --- | --- | --- | --- |
| B1 | ~5 nM | 91 nM | 0.0041 s⁻¹ | 45000 M⁻¹ s⁻¹ | ~2 nM | 0.59 nM | 3.54 nM | 0.44 nM | 48.9 nM | – | – | – | – | – | – | – |
| B2 | ~4 nM | 18 nM | 0.0019 s⁻¹ | 110000 M⁻¹ s⁻¹ | ~1 nM | 0.09 nM | 1.91 nM | 1.43 nM | 16.2 nM | 0.034 nM | 0.011 nM | ~2 nM | 1.02 nM | 1.92 nM | ~1 nM | – |
| B3 | – | 65 nM | 0.0034 s⁻¹ | 52000 M⁻¹ s⁻¹ | ~2 nM | 0.49 nM | 3.91 nM | 0.52 nM | 53.6 nM | 0.051 nM | 0.031 nM | ~2 nM | 0.49 nM | 0.21 nM | ~2 nM | Relative masking efficacy, CD83 expression, B-cells of hCD40 KI mice (human CD40 on cells [5]): 1 fold; Relative masking efficacy, CD86 expression, B-cells of hCD40 KI mice (human CD40 on cells [5]): 1 fold; EC50, CD86 expression, primary human B-cell activation assay (human CD40 on cells [9]): 0.175 nM; Relative masking efficacy, CD86 expression, primary human B-cell activation assay (human CD40 on cells [9]): 1 fold; EC50, luciferase reporter assay in U-2 OS/NFκB cells (human CD40 on cells [10]): 0.238 nM; Relative masking efficacy, luciferase reporter assay in U-2 OS/NFκB cells (human CD40 on cells [10]): 1 fold; Relative masking efficacy (human CD40 on cells [11]): 1 fold; EC50 (human CD40 on cells [12]): 1.5 nM; EC50 (human CD40 on cells [13]): 1.34 nM; Relative masking efficacy (human CD40 on cells [14]): 1 fold |
| B4 | – | – | – | – | – | – | – | 0.54 nM | 45.2 nM | – | – | – | – | – | ~2 nM | – |
| B5 | – | – | – | – | – | – | – | – | – | – | – | – | – | – | – | binding result (human CD40 on cells [1]): binds |
